Results as given in article PMC2682205, “Cdc7p-Dbf4p Regulates Mitotic Exit by Inhibiting Polo Kinase” (PLoS Genetics, 2009).

Biological target: T1, GST-PoloPBD (Polo amino acids 357–705) (budding yeast (S. cerevisiae), UniProt P32562 357-705)
T1 construct: Cdc5p (Polo), budding yeast; amino acids 357-705 with the polo-box domain; Cloned into pGEX-KG; also called GST-PBD; source: E. coli BL21, purified (glutathione-agarose, dialysis)
T1 sequence (looked up): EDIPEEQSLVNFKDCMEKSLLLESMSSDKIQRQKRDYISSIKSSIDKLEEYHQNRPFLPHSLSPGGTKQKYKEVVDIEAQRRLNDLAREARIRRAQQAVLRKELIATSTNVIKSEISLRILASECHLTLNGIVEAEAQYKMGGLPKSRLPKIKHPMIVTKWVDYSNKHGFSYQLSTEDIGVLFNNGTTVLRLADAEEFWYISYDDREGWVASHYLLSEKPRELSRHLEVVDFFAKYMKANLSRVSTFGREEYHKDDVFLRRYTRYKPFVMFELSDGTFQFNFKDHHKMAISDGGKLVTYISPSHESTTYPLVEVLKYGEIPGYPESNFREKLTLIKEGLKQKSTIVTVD
Assay: pull-down; GST or GST-PBD with Sumo or Sumo-Dbf4p on glutathione-agarose, 20 mM Tris-HCl pH 7.0, 300 mM NaCl, 0.5% NP-40, 1 mM EGTA, 1 hour at 4°C; blots with anti-GST-Polo PBD and anti-Smt3p
Conditions: both partners purified

B1: Sumo-Dbf4p_(67–109) (domain or fragment, budding yeast (S. cerevisiae), UniProt P32325 66-109, looked up)
chain: QQQQHLHEKKRARIERARSIEGAVQVSKGTGLKNVEPRVTPKEL
notes: Dbf4p, budding yeast; Cloned into pSUMO (LifeSensors Inc.); also called Dbf4p PIR; source: E. coli BL21, purified (Ni++ column, imidazole gradient)
binding result: binds
